Results reported in patent publication US20220010003A1 (Boehringer Ingelheim, published 2022).

T1: recombinant human periostin (human, UniProt Q15063 22-836)
T1 sequence: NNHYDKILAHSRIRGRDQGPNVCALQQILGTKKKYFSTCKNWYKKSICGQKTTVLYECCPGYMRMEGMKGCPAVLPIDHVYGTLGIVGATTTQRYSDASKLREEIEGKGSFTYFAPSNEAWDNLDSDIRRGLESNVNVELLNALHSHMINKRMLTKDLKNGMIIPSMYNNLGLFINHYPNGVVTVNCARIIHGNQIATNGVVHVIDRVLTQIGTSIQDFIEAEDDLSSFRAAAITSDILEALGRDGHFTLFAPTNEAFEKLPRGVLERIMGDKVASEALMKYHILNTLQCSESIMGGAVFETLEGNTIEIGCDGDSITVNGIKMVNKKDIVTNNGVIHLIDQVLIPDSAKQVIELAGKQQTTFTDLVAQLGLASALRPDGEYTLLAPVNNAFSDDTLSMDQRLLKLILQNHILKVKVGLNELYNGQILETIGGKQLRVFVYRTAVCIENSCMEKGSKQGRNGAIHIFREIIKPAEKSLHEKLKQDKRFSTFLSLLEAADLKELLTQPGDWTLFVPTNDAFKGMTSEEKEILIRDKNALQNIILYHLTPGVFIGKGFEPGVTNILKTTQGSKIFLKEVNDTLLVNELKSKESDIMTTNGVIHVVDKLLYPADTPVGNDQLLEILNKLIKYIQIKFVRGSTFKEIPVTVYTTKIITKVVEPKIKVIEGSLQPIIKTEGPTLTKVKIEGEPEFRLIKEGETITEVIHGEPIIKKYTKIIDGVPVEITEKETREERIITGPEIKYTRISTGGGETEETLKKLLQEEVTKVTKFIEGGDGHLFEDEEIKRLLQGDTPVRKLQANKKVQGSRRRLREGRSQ

T2: recombinant mouse periostin (mouse, UniProt Q62009-2 24-811, limits assumed)
T2 construct: also called MoPOSTN
T2 sequence (looked up): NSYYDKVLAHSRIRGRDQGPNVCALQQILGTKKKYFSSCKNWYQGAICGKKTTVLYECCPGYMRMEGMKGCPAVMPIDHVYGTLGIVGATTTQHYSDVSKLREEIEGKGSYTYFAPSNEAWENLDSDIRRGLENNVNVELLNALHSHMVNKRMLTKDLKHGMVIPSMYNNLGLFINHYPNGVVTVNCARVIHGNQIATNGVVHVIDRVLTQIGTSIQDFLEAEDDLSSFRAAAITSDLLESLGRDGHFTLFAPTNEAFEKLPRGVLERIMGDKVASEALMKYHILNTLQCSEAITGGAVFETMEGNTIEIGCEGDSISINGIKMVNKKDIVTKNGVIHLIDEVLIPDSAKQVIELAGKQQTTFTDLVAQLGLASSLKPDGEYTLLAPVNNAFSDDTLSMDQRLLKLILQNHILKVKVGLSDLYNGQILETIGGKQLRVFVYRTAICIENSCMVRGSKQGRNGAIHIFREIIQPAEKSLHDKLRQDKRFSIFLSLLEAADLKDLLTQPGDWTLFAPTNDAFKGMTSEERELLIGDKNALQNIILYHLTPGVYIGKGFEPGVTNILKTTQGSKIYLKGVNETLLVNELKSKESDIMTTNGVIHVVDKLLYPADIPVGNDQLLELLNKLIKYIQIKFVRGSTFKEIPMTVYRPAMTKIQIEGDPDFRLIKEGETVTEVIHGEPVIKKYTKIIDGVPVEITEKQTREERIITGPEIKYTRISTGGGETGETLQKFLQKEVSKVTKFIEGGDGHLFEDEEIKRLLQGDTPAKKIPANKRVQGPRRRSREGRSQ


Assays:
[1] = biological target: T1, recombinant human periostin; experiment: cell-based or functional assay
[2] = biological target: T2, recombinant mouse periostin; experiment: ELISA, periostin coated, anti-human Fc-HRP; the clone is named in Table 2
[3] = biological target: T1, recombinant human periostin; experiment: as above
[4] = biological target: T2, recombinant mouse periostin; experiment: binding ELISA, periostin coated
[5] = biological target: T1, recombinant human periostin; experiment: binding ELISA, periostin coated
[6] = biological target: T2, recombinant mouse periostin; experiment: cell-based or functional assay
[7] = biological target: T1, recombinant human periostin; experiment: cell-based or functional assay; remark: listed apart in the source

IC50 (nM), cell attachment assay [1]	EC50 [2]	EC50 [3]	EC50 [4]	EC50 [5]	CAA IC50 [6]	CAA IC50 [7]	Binder
–	–	–	19.3 nM	9.47 nM	65.1 nM	–	NB1014 (N55T_M100V) (antibody, V domains shown, Double mutant of NB0828 (IgG4PAA parent); the isotype of the variant is not restated) VH: QVQLVQSGAEVKKPGASVKVSCKASGYTFTSYGISWVRQAPGQGLEWMGWISAYTGNTNYAQKLQGRVTMTTDTSTSTAYMELRSLRSDDTAVYYCARDVLVVPFDYWGQGTLVTVSS VL: QSVLTQSSSASGTPGQTVTVSCSGSSSDIGSNRVNWYQQLPGTAPKLLIYSNDQRPSGVPDRFSGSKSGTSASLAISGLQSADEADYYCAAWDDSLSTYVFGSGTKVTVL
–	–	–	0.18 nM	0.12 nM	20.9 nM	13.6 nM	NB1015 (N55D) (antibody, V domains shown, Variant of NB0828 (IgG4PAA parent); the isotype of the variant is not restated) VH: QVQLVQSGAEVKKPGASVKVSCKASGYTFTSYGISWVRQAPGQGLEWMGWISAYDGNTNYAQKLQGRVTMTTDTSTSTAYMELRSLRSDDTAVYYCARDMLVVPFDYWGQGTLVTVSS VL: QSVLTQSSSASGTPGQTVTVSCSGSSSDIGSNRVNWYQQLPGTAPKLLIYSNDQRPSGVPDRFSGSKSGTSASLAISGLQSADEADYYCAAWDDSLSTYVFGSGTKVTVL
–	–	–	4.42 nM	2.28 nM	42.3 nM	–	NB1012 (N55S_M100I) (antibody, V domains shown, Double mutant of NB0828 (IgG4PAA parent); the isotype of the variant is not restated) VH: QVQLVQSGAEVKKPGASVKVSCKASGYTFTSYGISWVRQAPGQGLEWMGWISAYSGNTNYAQKLQGRVTMTTDTSTSTAYMELRSLRSDDTAVYYCARDILVVPFDYWGQGTLVTVSS VL: QSVLTQSSSASGTPGQTVTVSCSGSSSDIGSNRVNWYQQLPGTAPKLLIYSNDQRPSGVPDRFSGSKSGTSASLAISGLQSADEADYYCAAWDDSLSTYVFGSGTKVTVL

Further lines, the binder ahead of its results:

Binder	IC50 (nM), cell attachment assay [1]	EC50 [2]	EC50 [3]	EC50 [4]	EC50 [5]	CAA IC50 [6]	CAA IC50 [7]
NB0627 (antibody, human IgG1, V domains shown) VH: QVQLVQSGAEVKKPGASVKVSCKASGYTFTSYGISWVRQAPGQGLEWMGWISAYNGNTNYAQKLQGRVTMTTDTSTSTAYMELRSLRSDDTAVYYCARDMLVVPFDYWGQGTLVTVSS VL: QSVLTQSSSASGTPGQTVTVSCSGSSSDIGSNRVNWYQQLPGTAPKLLIYSNDQRPSGVPDRFSGSKSGTSASLAISGLQSADEADYYCAAWDDSLSTYVFGSGTKVTVL	22.4 nM	< 1 nM	< 1 nM	–	–	–	–
NB1010 (N55Q) (antibody, V domains shown, Variant of NB0828 (IgG4PAA parent); the isotype of the variant is not restated) VH: QVQLVQSGAEVKKPGASVKVSCKASGYTFTSYGISWVRQAPGQGLEWMGWISAYQGNTNYAQKLQGRVTMTTDTSTSTAYMELRSLRSDDTAVYYCARDMLVVPFDYWGQGTLVTVSS VL: QSVLTQSSSASGTPGQTVTVSCSGSSSDIGSNRVNWYQQLPGTAPKLLIYSNDQRPSGVPDRFSGSKSGTSASLAISGLQSADEADYYCAAWDDSLSTYVFGSGTKVTVL	–	–	–	0.1 nM	0.08 nM	19.6 nM	7.97 nM
NB1003 (N55S) (antibody, V domains shown, Variant of NB0828 (IgG4PAA parent); the isotype of the variant is not restated) VH: QVQLVQSGAEVKKPGASVKVSCKASGYTFTSYGISWVRQAPGQGLEWMGWISAYSGNTNYAQKLQGRVTMTTDTSTSTAYMELRSLRSDDTAVYYCARDMLVVPFDYWGQGTLVTVSS VL: QSVLTQSSSASGTPGQTVTVSCSGSSSDIGSNRVNWYQQLPGTAPKLLIYSNDQRPSGVPDRFSGSKSGTSASLAISGLQSADEADYYCAAWDDSLSTYVFGSGTKVTVL	–	–	–	0.08 nM	0.08 nM	14.9 nM	10.8 nM
NB1011 (N55T) (antibody, V domains shown, Variant of NB0828 (IgG4PAA parent); the isotype of the variant is not restated) VH: QVQLVQSGAEVKKPGASVKVSCKASGYTFTSYGISWVRQAPGQGLEWMGWISAYTGNTNYAQKLQGRVTMTTDTSTSTAYMELRSLRSDDTAVYYCARDMLVVPFDYWGQGTLVTVSS VL: QSVLTQSSSASGTPGQTVTVSCSGSSSDIGSNRVNWYQQLPGTAPKLLIYSNDQRPSGVPDRFSGSKSGTSASLAISGLQSADEADYYCAAWDDSLSTYVFGSGTKVTVL	–	–	–	0.07 nM	0.07 nM	22.3 nM	15 nM
